The values below come from patent US20040214255A1 (MYRIAD GENETICS, published 2004).

Holding throughout (assay): yeast two-hybrid
Experiment [1] has as its target T1, Dynamin, amino acids 250-700 (human, UniProt Q05193 250-700).
T1 construct: range 250-700
T1 sequence (looked up): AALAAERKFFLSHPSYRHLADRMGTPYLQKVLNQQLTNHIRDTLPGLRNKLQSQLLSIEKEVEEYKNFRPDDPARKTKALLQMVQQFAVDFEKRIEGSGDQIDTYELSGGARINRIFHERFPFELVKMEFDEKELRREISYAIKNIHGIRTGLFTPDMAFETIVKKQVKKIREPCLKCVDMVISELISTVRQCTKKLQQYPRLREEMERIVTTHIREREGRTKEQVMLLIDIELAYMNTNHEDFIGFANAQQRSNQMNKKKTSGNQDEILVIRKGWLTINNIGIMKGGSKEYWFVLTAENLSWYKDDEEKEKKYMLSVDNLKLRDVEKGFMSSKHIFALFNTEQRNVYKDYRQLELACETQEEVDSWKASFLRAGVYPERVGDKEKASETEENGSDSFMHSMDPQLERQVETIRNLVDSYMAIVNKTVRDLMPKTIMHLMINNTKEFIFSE
The source says:
(§1) The new construct was selected directly in the yeast strain PNY200 for its ability to drive tryptophane synthesis (genotype of this strain: […] trp1-901 leu2-3,112 ura3-52 his3-200 ade2 gal4Δ gal80). In these yeast cells, the bait was produced as a C-terminal fusion protein with the DNA binding domain of the transcription factor Ga14 (amino acids 1 to 147). Prey libraries were transformed into the yeast strain BK100 (genotype of this strain: MATα trp1-901 leu2-3,112 ura3-52 his3-200 gal4Δ gal80 LYS2::GAL-HIS3 GAL2-ADE2 met2::GAL7-lacZ), and selected for the ability to drive leucine synthesis. In these yeast cells, each cDNA was expressed as a fusion protein with the transcription activation domain of the transcription factor Ga14 (amino acids 768 to 881) and a 9 amino acid hemagglutinin epitope tag. PNY200 cells (MATα mating type), expressing the bait, were then mated with BK100 cells (MATa mating type), expressing prey proteins from a prey library. The resulting diploid yeast cells expressing proteins interacting with the bait protein were selected for the ability to synthesize tryptophan, leucine, histidine, and adenine. DNA was prepared from each clone, transformed by electroporation into E. coli strain KC8 (Clontech KC8 electrocompetent cells, Catalog No. C2023-1), and the cells were selected on ampicillin-containing plates in the absence of either tryptophane (selection for the bait plasmid) or leucine (selection for the library plasmid). DNA for both plasmids was prepared and sequenced by the dideoxynucleotide chain termination method. The identity of the bait cDNA insert was confirmed and the cDNA insert from the prey library plasmid was identified using the BLAST program to search against public nucleotide and protein databases. Plasmids from the prey library were then individually transformed into yeast cells together with a plasmid driving the synthesis of lamin and 5 other test proteins, respectively, fused to the Ga14 DNA binding domain. Clones that gave a positive signal in the β-galactosidase assay were considered false-positives and discarded. […] Clones that gave a positive signal in the β-galactosidase assay were considered true positives.

For experiment [2], the target named is T2, Myosin Heavy Chain (Swiss Protein P13533), amino acids 1589-1909 (human, UniProt P13533 1589-1909).
T2 construct: range 1589-1909; also called cardiac muscle myosin heavy chain; MYSA
Source text: as §1

For experiment [3], the target named is T3, Insulin-Regulated Membrane-Spanning Aminopeptidase (IRAP), amino acids 129-473 (human, UniProt Q9UIQ6 129-473).
T3 construct: range 129-473; also called vp165; gp160
Source text: as §1

In experiment [4] the target is T4, BAP31, amino acids 111-247 (human, UniProt P51572 111-246).
T4 construct: range 111-247
T4 sequence (looked up): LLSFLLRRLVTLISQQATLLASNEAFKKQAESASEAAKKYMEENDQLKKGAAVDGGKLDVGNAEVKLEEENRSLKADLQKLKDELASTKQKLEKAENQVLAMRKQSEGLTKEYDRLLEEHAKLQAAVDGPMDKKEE
Source text: as §1

In experiment [5] the target is T5, 14-3-3-Zeta, amino acids 79-246 (human, UniProt P63104 79-245).
T5 sequence: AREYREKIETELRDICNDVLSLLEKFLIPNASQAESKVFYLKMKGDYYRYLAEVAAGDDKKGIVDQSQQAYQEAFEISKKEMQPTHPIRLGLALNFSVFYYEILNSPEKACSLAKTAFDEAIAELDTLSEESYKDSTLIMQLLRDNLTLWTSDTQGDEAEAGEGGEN
Source text: as §1

Experiment [6] deals with T6, 14-3-3-Eta, amino acids 91-246 (human, UniProt Q04917 91-246).
T6 construct: range 91-246
T6 sequence (looked up): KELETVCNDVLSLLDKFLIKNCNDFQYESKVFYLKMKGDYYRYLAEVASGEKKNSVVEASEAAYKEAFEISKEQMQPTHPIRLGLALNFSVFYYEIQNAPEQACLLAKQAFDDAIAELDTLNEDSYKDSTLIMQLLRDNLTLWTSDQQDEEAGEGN
Source text: as §1

In experiment [7] the target is T7, Dynamin, amino acids 104-365 (human, UniProt Q05193 104-365).
T7 construct: range 104-365
T7 sequence (looked up): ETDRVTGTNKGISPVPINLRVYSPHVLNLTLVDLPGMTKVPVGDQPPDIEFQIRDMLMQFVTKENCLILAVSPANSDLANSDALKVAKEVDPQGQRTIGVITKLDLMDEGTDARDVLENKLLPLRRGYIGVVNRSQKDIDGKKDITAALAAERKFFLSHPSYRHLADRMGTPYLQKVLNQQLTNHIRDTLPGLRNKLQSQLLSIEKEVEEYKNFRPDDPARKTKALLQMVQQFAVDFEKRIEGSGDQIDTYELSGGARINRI
Source text: as §1

For experiment [8], the target named is T8, NuMA1, amino acids 98-365 (human, UniProt Q14980 98-365).
T8 construct: range 98-365; also called nuclear mitotic apparatus protein NuMA1
T8 sequence (looked up): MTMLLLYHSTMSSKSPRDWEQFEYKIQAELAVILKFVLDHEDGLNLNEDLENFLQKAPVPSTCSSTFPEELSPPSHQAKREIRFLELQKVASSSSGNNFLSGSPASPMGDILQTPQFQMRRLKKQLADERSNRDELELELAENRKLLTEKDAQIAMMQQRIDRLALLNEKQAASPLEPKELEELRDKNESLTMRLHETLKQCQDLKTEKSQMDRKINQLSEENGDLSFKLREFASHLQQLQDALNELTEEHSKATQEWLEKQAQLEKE
Source text: as §1

Experiment [9] concerns the target T9, Alpha Acid Glucosidase (GAA), amino acids 513-953 (human, UniProt P10253 513-952).
T9 construct: range 513-953
Source text: as §1

Experiment [10] deals with T10, NuMA1, amino acids 185-361 (human, UniProt Q14980 185-361).
T10 construct: range 185-361; also called nuclear mitotic apparatus protein NuMA1
T10 sequence (looked up): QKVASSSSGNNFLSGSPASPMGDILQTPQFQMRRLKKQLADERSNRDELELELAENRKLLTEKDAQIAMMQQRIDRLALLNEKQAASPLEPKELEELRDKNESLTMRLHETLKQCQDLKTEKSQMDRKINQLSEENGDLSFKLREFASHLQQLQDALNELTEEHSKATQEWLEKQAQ
Source text: as §1

Experiment [11] deals with T11, Tropomyosin 3, amino acids 171-286 (human, UniProt P06753 171-285).
T11 construct: range 171-286
Source text: as §1

T2 sequence (P13533 1589-1909, one chain of several): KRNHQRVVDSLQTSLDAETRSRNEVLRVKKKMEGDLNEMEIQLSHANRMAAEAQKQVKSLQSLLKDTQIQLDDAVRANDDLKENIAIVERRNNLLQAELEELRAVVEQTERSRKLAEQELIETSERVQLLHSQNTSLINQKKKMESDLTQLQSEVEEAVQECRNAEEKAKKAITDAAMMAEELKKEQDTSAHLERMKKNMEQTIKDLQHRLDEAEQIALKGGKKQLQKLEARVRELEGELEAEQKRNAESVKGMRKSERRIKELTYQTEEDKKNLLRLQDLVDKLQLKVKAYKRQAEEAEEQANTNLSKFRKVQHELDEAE
T3 sequence (Q9UIQ6 129-473 limits assumed): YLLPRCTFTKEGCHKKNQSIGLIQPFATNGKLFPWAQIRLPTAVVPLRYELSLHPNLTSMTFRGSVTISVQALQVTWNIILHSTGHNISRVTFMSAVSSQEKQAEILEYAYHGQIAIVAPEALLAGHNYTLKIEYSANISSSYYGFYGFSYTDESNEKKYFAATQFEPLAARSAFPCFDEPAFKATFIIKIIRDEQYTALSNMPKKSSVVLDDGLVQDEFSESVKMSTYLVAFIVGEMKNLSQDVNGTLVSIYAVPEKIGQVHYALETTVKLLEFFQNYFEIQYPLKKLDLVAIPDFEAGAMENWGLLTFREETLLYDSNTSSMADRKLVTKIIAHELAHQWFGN
T9 sequence (P10253 513-952 limits assumed): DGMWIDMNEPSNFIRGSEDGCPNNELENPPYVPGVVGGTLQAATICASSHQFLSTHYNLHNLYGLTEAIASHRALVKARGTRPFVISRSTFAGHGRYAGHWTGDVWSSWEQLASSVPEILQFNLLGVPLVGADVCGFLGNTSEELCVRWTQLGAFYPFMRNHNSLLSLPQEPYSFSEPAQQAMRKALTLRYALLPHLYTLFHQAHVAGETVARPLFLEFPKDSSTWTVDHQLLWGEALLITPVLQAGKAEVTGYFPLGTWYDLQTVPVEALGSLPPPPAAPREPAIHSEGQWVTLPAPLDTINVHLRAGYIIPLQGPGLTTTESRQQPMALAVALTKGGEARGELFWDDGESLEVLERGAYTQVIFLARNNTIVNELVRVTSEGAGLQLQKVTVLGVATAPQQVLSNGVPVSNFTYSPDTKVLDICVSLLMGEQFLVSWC
T11 sequence (P06753 171-285 limits assumed): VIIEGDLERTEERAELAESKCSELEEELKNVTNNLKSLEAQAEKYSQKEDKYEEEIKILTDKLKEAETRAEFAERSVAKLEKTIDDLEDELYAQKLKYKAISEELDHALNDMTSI

B1: Clathrin Assembly Protein (CALM), amino acids 267-484 (other, human, UniProt Q13492 267-484, looked up)
chain: LSQAPSSLLDALEQHLASLEGKKIKDSTAASRATTLSNAVSSLASTGLSLTKVDEREKQAALEEEQARLKALKEQRLKELAKKPHTSLTTAASPVSTSAGGIMTAPAIDIFSTPSSSNSTSKLPNDLLDLQQPTFHPSVHPMSTASQVASTWGDPFSATVDAVDDAIPSLNPFLTKSSGDVHLSISSDVSTFTTRTPTHEMFVGFTPSPVAQPHPSAG
notes: range 267-484
Consider B1, for which the binding result in experiment [1] is listed as “binds”.
For the molecule TYFKVPETKGRTFDEIASGFRQGGASQSDKTPEELFHPLGADSQV (other, human, UniProt P11166 448-492, looked up, range 448-493; also called GLUT1; Glut1) [Glucose Transporter 1, amino acids 448-493], the binding result in [2] is reported as “binds”.

B2: 14-3-3 Beta, amino acids 97-236 (other, human, UniProt P31946 97-236, looked up)
chain: NDVLELLDKYLIPNATQPESKVFYLKMKGDYFRYLSEVASGDNKQTTVSNSQQAYQEAFEISKKEMQPTHPIRLGLALNFSVFYYEILNSPEKACSLAKTAFDEAIAELDTLNEESYKDSTLIMQLLRDNLTLWTSENQG
notes: range 97-236
Turning to B2, the binding result in [3] is given as “binds”.

B3: Akt kinase 2 (Akt2), amino acids 276-408 (enzyme, human, UniProt P31751 276-408, looked up)
chain: IKLENLMLDKDGHIKITDFGLCKEGISDGATMKTFCGTPEYLAPEVLEDNDYGRAVDWWGLGVVMYEMMCGRLPFYNQDHERLFELILMEEIRFPRTLSPEAKSLLAGLLKKDPKQRLGGGPSDAKEVMEHRF
notes: range 276-408
Take B3: the binding result in [4] is on record as “binds”.

B4: PI-3K85, amino acids 1-50 (other, human, UniProt P27986 1-50, looked up)
chain: MSAEGYQYRALYDYKKEREEDIDLHLGDILTVNKGSLVALGFSDGQEARP
notes: range 1-50; also called p85 regulatory subunit of PI-3 kinase; PI-3 kinase p85
For the molecule B4, the binding result in experiment [5] and in experiment [6] was “binds” in each case.

B5: GLUT1, amino acids 463-492 (other, human, UniProt P11166 463-492, looked up)
chain: IASGFRQGGASQSDKTPEELFHPLGADSQV
notes: range 463-492; also called Glucose Transporter 1
With B5, the binding result in [7] was “binds”.

B6: Akt kinase 2 (Akt2), amino acids 1-152 (enzyme, human, UniProt P31751 1-152, looked up)
chain: MNEVSVIKEGWLHKRGEYIKTWRPRYFLLKSDGSFIGYKERPEAPDQTLPPLNNFSVAECQLMKTERPRPNTFVIRCLQWTTVIERTFHVDSPDEREEWMRAIQMVANSLKQRAPGEDPMDYKCGSPSDSSTTEEMEVAVSKARAKVTMNDF
notes: range 1-152
Take B6: the binding result in [8] is “binds”.

B7: PI-3 kinase p110 subunit, amino acids 1-300 (enzyme)
chain: MCFSFIMPPAMADILDIWAVDSQIASDGSIPVDFLLPTGIYIQLEVPREATISYIKQMLWKQVHNYPMFNLLMDIDSYMFACVNQTAVYEELEDETRRLCDVRPFLPVLKLVTRSCDPGEKLDSKIGVLIGKGLHEFDSLKDPEVNEFRRKMRKFSEEKILSLVGLSWMDWLKQTYPPEHEPSIPENLEDKLYGGKLIVAVHFENCQDVFSFQVSPNMNPIKVNELAIQKRLTIHGKEDEVSPYDYVLQVSGRVEYVFGDHPLIQFQYIRNCVMNRALPHFILVECCKIKKMYEQEMIAI
notes: range 1-300; also called PI-3K110; p110 catalytic subunit of PI-3 kinase
B7: in experiment [9], the binding result is listed as “binds”.

B8: Proteosome Activator Subunit Psme3, amino acids 72-254 (other, human, UniProt P61289 72-254, looked up)
chain: LTNSHDGLDGPTYKKRRLDECEEAFQGTKVFVMPNGMLKSNQQLVDIIEKVKPEIRLLIEKCNTVKMWVQLLIPRIEDGNNFGVSIQEETVAELRTVESEAASYLDQISRYYITRAKLVSKIAKYPHVEDYRRTVTEIDEKEYISLRLIISELRNQYVTLHDMILKNIEKIKRPRSSNAETLY
notes: range 72-254
Regarding B8, the binding result in experiment [1] is listed as “binds”.

B9: Akt kinase 1 (Akt1), amino acids 1-118 (enzyme, human, UniProt P31749 1-118, looked up)
chain: MSDVAIVKEGWLHKRGEYIKTWRPRYFLLKNDGTFIGYKERPQDVDQREAPLNNFSVAQCQLMKTERPRPNTFIIRCLQWTTVIERTFHVETPEEREEWTTAIQTVADGLKKQEEEEM
notes: range 1-118
Turning to B9, the binding result in experiment [10] was “binds”.

B10: Glut4, amino acids 434-510 (other, human, UniProt P14672 434-509, looked up)
chain: IGMGFQYVAEAMGPYVFLLFAVLLLGFFIFTFLRVPETRGRTFDQISAAFHRTPSLLEQEVKPSTELEYLGPDEND
notes: range 434-510; also called Glucose Transporter 4
In the case of B10, the binding result in experiment [11] is listed as “binds”.
